The text below walks through data of US20050221459A1 (DUKE UNIVERSITY, published 2005).

Ends that are not written are not given here. * marks the point of attachment. Geranylgeranyl = CC(C)=CCC/C(C)=C/CC/C(C)=C/CC/C(C)=C/C*; Farnesyl = CC(C)=CCC/C(C)=C/CC/C(C)=C/C*

The target in test [1] is T1, Rat protein geranylgeranyl transferase type I (GGTase-I) (rat, UniProt Q04631 1-377; P53610 1-377). The test can be described thus: X-ray crystal structure, ternary complex with 3'azaGGPP. As for the experimental part: Rat GGTase-I was expressed and purified as previously described herein (see also SAtrickland et al., 1999). […] GGTase-I product co-crystals were first transferred stepwise from their mother liquor (1.3 M NH₄SO₄, 175 mM Na₃-citrate, 100 mM MES pH 6.3, and 20 mM DTT) to cyro-solvent (30% (w:v) sucrose, 900 mM Na₃-citrate, 100 mM MES pH 6.3, 10 mM TCEP, and 1 μM ZnCl₂) supplemented with 0.2 mM 3′azaGGPP and 0.2 mM of the appropriate Ca₁a₂X peptide (Sigma-Genosys, >95% purity). All crystals were soaked for a week to allow for ternary complex formation and flash-cooled in liquid nitrogen.
(§1) Diffraction data were collected at 100 K with an R-Axis IV image plate system (Molecular Structure Corp., The Woodlands, Tex., United States of America) mounted on a Rigaku RU-H3R rotating anode generator with double mirror optics (Molecular Structure Corp.). Diffraction data were also collected at the BioCARS and SER-CAT beamlines at the Advanced Photon Source, Argonne National Labs and at the X25 beamline at the National Synchrotron Light Source, Brookhaven National Labs (BNLNSLS).

The target in test [2] is T2, Rat protein farnesyltransferase (rFTase) (rat, UniProt Q04631 1-377; Q02293 1-437). Nature of the test: X-ray crystal structure, ternary complex with FPT-II.
Excerpt: (§2) The FTase:FPTII: Ca₁a₂X complexes were transferred to cryoprotection solutions and flash-cooled in liquid nitrogen.
as §1
(§3) The structures were determined by rigid body refinement using either rat FTase (Brookhaven Protein Data Bank code 1 D8D) or human FTase (Brookhaven Protein Data Bank code 1JCQ) as the initial model with ligands removed. […] After rigid body refinement, FPT-II and the Ca₁a₂X peptides were fit into σA weighted Fₒ-Fc maps and the complexes refined against all data with |F|≧0 by iterative cycles of simulated annealing, minimization, individual B-factor refinement, and model building. Refinements were carried out using CNS v1.0 (Brünger et al., 1998) and models built using O (Jones et al., 1991).

The target in test [3] is Human protein farnesyltransferase (hFTase) (human, UniProt P49354 1-379; P49356 1-437). The description is as above.
Excerpt: as §2, §1, §3

The target of test [4] is T2, Rat protein farnesyltransferase (rFTase). Nature of the test: co-crystal of the product complex.
Test [5] concerns the target T1, Rat protein geranylgeranyl transferase …. Nature of the test: X-ray crystal structure, product Complex 3. As for the experimental part: (§4) GGTase-I crystals were grown at 17° C. in hanging drops using equal volumes of protein and reservoir solution (1.3 M NH₄SO₄, 175 mM Na₃ citrate pH 6.5, 20 mM DTT and 100 mM MES, pH 6.3). Micro-seeds were added after equilibration to control nucleation. Seeding solution was produced by crushing GGTase-I crystals in stabilizing solution (1.5 M NH₄SO₄, 175 mM Na₃ citrate pH 6.5, 5 mM ZnCl₂, 20 mM DTT and 100 mM MES, pH 6.3). […] For data collection crystals were transferred stepwise into cryosolvent (30% (w:v) sucrose, 1.8 M NH₄SO₄, 5 mM ZnCl₂, 10 mM TCEP, and 100 mM MES, pH 6.3) before flash-freezing in liquid nitrogen. Derivative crystals were soaked 18 hours in cryosolvent containing 1 mM Di-m-iodobis (ethylenediamine) diplatinum (II) nitrate (PIP) and no TCEP.

Test [6] has the same target. The test can be described thus: X-ray crystal structure, ternary Complex 2 with 3'AzaGGPP. As for the experimental part: as §4
The target in test [7] is T2, Rat protein farnesyltransferase (rFTase). The test can be described thus: X-ray crystal structure, FTase complexed with FPT-II and peptide (FIG. 16).
Excerpt: as §2, §1, §3

As to GCINCCKVL (Synthetic, Sigma-Genosys, >95% purity) [RhoB peptide GCINCCKVL (SEQ ID NO: 11)], the binding result in test [1] is reported as “binds”.

B1: heterotrimeric G protein γ2 subunit peptide FREKKFFCAIL (SEQ ID NO: 13) (peptide)
peptide: FREKKFFCAIL
notes: Synthetic, Sigma-Genosys, >95% purity; also called y2
B1: the binding result in test [1] is reported as “binds”.

B2: TC21 peptide KKSKTKCVIF (SEQ ID NO: 9) (peptide)
peptide: KKSKTKCVIF
notes: Synthetic, Sigma-Genosys, >95% purity; also called TC21 (CVIF)
In the case of B2, the binding result in test [2] and in test [1] was “binds” in each case.

B3: Cdc42 splice isoform 2 peptide RRCVLL (SEQ ID NO: 14) (peptide)
peptide: RRCVLL
notes: Synthetic, Sigma-Genosys, >95% purity; also called Cdc42-II
For B3, the binding result in test [1] is listed as “binds”.

For KKSKTKCKVL (Synthetic, Sigma-Genosys, >95% purity) [RhoB peptide KKSKTKCKVL (SEQ ID NO: 12)], the binding result in test [1] was “binds”.

B4: Rap2a peptide DDPTASACNIQ (SEQ ID NO: 10) (peptide)
peptide: DDPTASACNIQ
notes: Synthetic, Sigma-Genosys, >95% purity; also called Rap2a (CNIQ)
Consider B4, for which, in test [3], the binding result is given as “binds”.

B5: farnesylated-KKKSKTKCVIM product (SEQ ID NO: 8) (peptide)
peptide: KKKSKTKC(Farnesyl)VIM
notes: Product co-crystal with FTase, used as starting material for the TC21 soak; also called farnesylated product
With B5, the binding result in test [4] is listed as “binds”.

B6: geranylgeranylated-KKKSKTKCVIL product (SEQ ID NO: 1) (peptide)
peptide: KKKSKTKC(Geranylgeranyl)VIL
notes: also called prenyl-peptide product; prenylated product
As for B6, the binding result in test [5] is on record as “binds”.

B7: Ca1a2X peptide KKKSKTKCVIL (SEQ ID NO: 1) (peptide)
peptide: KKKSKTKCVIL
notes: Synthetic, Sigma-Genosys, >95% purity; also called Rap2b chimera peptide; CVIL peptide
Consider B7, for which the binding result in test [6] is given as “binds”.

B8: K-Ras4B peptide KKKSKTKCVIM (SEQ ID NO: 8) (peptide)
peptide: KKKSKTKCVIM
notes: Synthetic, Sigma-Genosys, >95% purity; also called K-Ras4B (CVIM)
Consider B8, for which the binding result in test [1] was “binds”.

B9: H-Ras peptide GCVLS (SEQ ID NO: 6) (peptide)
peptide: GCVLS
notes: Synthetic, Sigma-Genosys, >95% purity; also called H-Ras (CVLS)
With B9, the binding result in test [7] is on record as “binds”.
